The values that follow come from patent publication US10253076B2, “Peptides and combination of peptides for use in immunotherapy against ovarian cancer and other cancers” (immatics biotechnologies GmbH, priority 2015, dated 2019).

In this test the target is HLA-A*02:01 (Homo sapiens, UniProt P04439, D140Y/D185E/D98H/E176V/E277Q/G131W/G231S/I119V/I121R/I166T/I218V/L300P/L318F/N151K/N90K/P208A/P217A/Q86G/Q94H/R138H/R169H/T345S). The test can be described thus: MHC binding assay (UV-ligand exchange, beta2m ELISA, peptide exchange yield). The following applies: binding of HLA-class I restricted peptides to HLA-A*02:01, ranged by peptide exchange yield (UV-ligand exchange, β2m ELISA). The source says: Candidate peptides for T cell based therapies according to the present invention were further tested for their MHC binding capacity (affinity). The individual peptide-MHC complexes were produced by UV-ligand exchange, where a UV-sensitive peptide is cleaved upon UV-irradiation, and exchanged with the peptide of interest as analyzed. Only peptide candidates that can effectively bind and stabilize the peptide-receptive MHC molecules prevent dissociation of the MHC complexes. To determine the yield of the exchange reaction, an ELISA was performed based on the detection of the light chain (β2m) of stabilized MHC complexes. The assay was performed as generally described in Rodenko et al. (Rodenko et al., 2006).
96 well MAXISorp plates (NUNC) were coated over night with 2ug/ml streptavidin in PBS at room temperature, washed 4× and blocked for 1 h at 37° C. in 2% BSA containing blocking buffer. […] Peptide-MHC monomers of the UV-exchange reaction were diluted 100 fold in blocking buffer. Samples were incubated for 1 h at 37° C., washed four times, incubated with 2ug/ml HRP conjugated anti-82m for 1 h at 37° C., washed again and detected with TMB solution that is stopped with […]. Absorption was measured at 450 nm. Candidate peptides that show a high exchange yield (preferably higher than 50%, most preferred higher than 75%) are generally preferred for a generation and production of antibodies or fragments thereof, and/or T cell receptors or fragments thereof, as they show sufficient avidity to the MHC molecules and prevent dissociation of the MHC complexes.
On the technique in general: In an ELISA, binding on a coated surface is turned into a signal by an enzyme label.

As to “80 (FLYDNLVESL; listed as Homo sapiens) [compound 80]”, the Peptide exchange result was “″++″ (≥20% = ++)”.

Consider “81 (FLFSQLQYL; listed as Homo sapiens) [compound 81]”, for which the Peptide exchange entry is recorded as “″++″ (≥20% = ++)”.

For “82 (FLSSVTYNL; listed as Homo sapiens) [compound 82]”, the Peptide exchange result is “″+++″ (≥50% = +++)”.

“83 (ILAPTVMMI; listed as Homo sapiens) [compound 83]”: the Peptide exchange result was “″+++″ (≥50% = +++)”.

“84 (VTFGEKLLGV; listed as Homo sapiens) [compound 84]”: the Peptide exchange entry was “″++″ (≥20% = ++)”.

With “85 (KMSELRVTL; listed as Homo sapiens) [compound 85]”, the Peptide exchange entry was “″+++″ (≥50% = +++)”.

Turning to “86 (NLIGKIENV; listed as Homo sapiens) [compound 86]”, the Peptide exchange result was “″+++″ (≥50% = +++)”.

With “87 (ALPEAPAPLLPHIT; listed as Homo sapiens) [compound 87]”, the Peptide exchange result is “″++″ (≥20% = ++)”.

In the case of “88 (FLLVGDLMAV; listed as Homo sapiens) [compound 88]”, the Peptide exchange result was “″+++″ (≥50% = +++)”.

For “89 (YILPTETIYV; listed as Homo sapiens) [compound 89]”, the Peptide exchange entry was “″++++″ (≥75% = ++++)”.

With “90 (TLLQIIETV; listed as Homo sapiens) [compound 90]”, the Peptide exchange result is “″+++″ (≥50% = +++)”.

“91 (IMQDFPAEIFL; listed as Homo sapiens) [compound 91]”: the Peptide exchange entry is “″++++″ (≥75% = ++++)”.

Take “92 (YLIPFTGIVGL; listed as Homo sapiens) [compound 92]”: the Peptide exchange result is on record as “″++″ (≥20% = ++)”.

Turning to “93 (LLQAIKLYL; listed as Homo sapiens) [compound 93]”, the Peptide exchange result is recorded as “″++″ (≥20% = ++)”.

Consider “94 (YLIDIKTIAI; listed as Homo sapiens) [compound 94]”, for which the Peptide exchange result was “″++″ (≥20% = ++)”.

For the substance “95 (SVIPQIQKV; listed as Homo sapiens) [compound 95]”, the Peptide exchange result is recorded as “″+++″ (≥50% = +++)”.

Take “96 (YIFTDNPAAV; listed as Homo sapiens) [compound 96]”: the Peptide exchange entry is listed as “″+++″ (≥50% = +++)”.

Take “97 (SLINGSFLV; listed as Homo sapiens) [compound 97]”: the Peptide exchange entry was “″+++″ (≥50% = +++)”.

Turning to “98 (LIIDQADIYL; listed as Homo sapiens) [compound 98]”, the Peptide exchange entry was “″+++″ (≥50% = +++)”.

With “99 (ALVSKGLATV; listed as Homo sapiens) [compound 99]”, the Peptide exchange entry is listed as “″++″ (≥20% = ++)”.

As for “100 (YLLSTNAQL; listed as Homo sapiens) [compound 100]”, the Peptide exchange entry is “″++++″ (≥75% = ++++)”.

“101 (ILVGGGALATV; listed as Homo sapiens) [compound 101]”: the Peptide exchange entry is listed as “″+++″ (≥50% = +++)”.

Take “102 (YLFESEGLVL; listed as Homo sapiens) [compound 102]”: the Peptide exchange result was “″+++″ (≥50% = +++)”.

Regarding “103 (TLAEEVVAL; listed as Homo sapiens) [compound 103]”, the Peptide exchange entry is reported as “″+++″ (≥50% = +++)”.

On to “104 (STMEQNFLL; listed as Homo sapiens) [compound 104]”, for which the Peptide exchange entry is reported as “″++++″ (≥75% = ++++)”.

For the substance “106 (LLYDAVHIVSV; listed as Homo sapiens) [compound 106]”, the Peptide exchange entry was “″+++″ (≥50% = +++)”.

“107 (FLQPVDDTQHL; listed as Homo sapiens) [compound 107]”: the Peptide exchange result is on record as “″+++″ (≥50% = +++)”.

Regarding “108 (ALFPGVALLLA; listed as Homo sapiens) [compound 108]”, the Peptide exchange entry is “″++++″ (≥75% = ++++)”.

For the substance “109 (IILSILEQA; listed as Homo sapiens) [compound 109]”, the Peptide exchange entry was “″++++″ (≥75% = ++++)”.

In the case of “110 (FLSQVDFEL; listed as Homo sapiens) [compound 110]”, the Peptide exchange entry was “″+++″ (≥50% = +++)”.

As for “111 (YVWGFYPAEV; listed as Homo sapiens) [compound 111]”, the Peptide exchange entry is on record as “″+++″ (≥50% = +++)”.

Turning to “114 (SLVGEPILQNV; listed as Homo sapiens) [compound 114]”, the Peptide exchange result is recorded as “″++″ (≥20% = ++)”.

As to “115 (AIAGAGILYGV; listed as Homo sapiens) [compound 115]”, the Peptide exchange result is given as “″++″ (≥20% = ++)”.

Take “116 (YHIDEEVGF; listed as Homo sapiens) [compound 116]”: the Peptide exchange result is recorded as “″+″ (≥10% = +)”.

Take “117 (ILPDGEDFLAV; listed as Homo sapiens) [compound 117]”: the Peptide exchange entry is recorded as “″+++″ (≥50% = +++)”.

With “119 (FLYIGDIVSL; listed as Homo sapiens) [compound 119]”, the Peptide exchange entry is listed as “″++++″ (≥75% = ++++)”.

As to “120 (ALLGIPLTLV; listed as Homo sapiens) [compound 120]”, the Peptide exchange result is on record as “″+++″ (≥50% = +++)”.

In the case of “121 (GVVDPRAISVL; listed as Homo sapiens) [compound 121]”, the Peptide exchange entry is listed as “″++″ (≥20% = ++)”.

As to “122 (FLLAEDDIYL; listed as Homo sapiens) [compound 122]”, the Peptide exchange result is given as “″+++″ (≥50% = +++)”.

Turning to “123 (NLWDLTDASVV; listed as Homo sapiens) [compound 123]”, the Peptide exchange entry is on record as “″+++″ (≥50% = +++)”.

“124 (ALYETELADA; listed as Homo sapiens) [compound 124]”: the Peptide exchange result is “″++″ (≥20% = ++)”.

For “125 (VQIHQVAQV; listed as Homo sapiens) [compound 125]”, the Peptide exchange result was “″+++″ (≥50% = +++)”.

As for “126 (VLAYFLPEA; listed as Homo sapiens) [compound 126]”, the Peptide exchange entry is listed as “″++++″ (≥75% = ++++)”.

“127 (KIGDEPPKV; listed as Homo sapiens) [compound 127]”: the Peptide exchange result is recorded as “″++″ (≥20% = ++)”.

As to “128 (YLFDDPLSAV; listed as Homo sapiens) [compound 128]”, the Peptide exchange entry is given as “″++″ (≥20% = ++)”.

For the substance “129 (GLLDGGVDILL; listed as Homo sapiens) [compound 129]”, the Peptide exchange entry is given as “″+++″ (≥50% = +++)”.

As for “130 (FLWNGEDSALL; listed as Homo sapiens) [compound 130]”, the Peptide exchange entry was “″+++″ (≥50% = +++)”.

Take “131 (FVPPVTVFPSL; listed as Homo sapiens) [compound 131]”: the Peptide exchange result is reported as “″++″ (≥20% = ++)”.

Consider “132 (LLVEQPPLAGV; listed as Homo sapiens) [compound 132]”, for which the Peptide exchange result is “″+++″ (≥50% = +++)”.

In the case of “133 (KVLSNIHTV; listed as Homo sapiens) [compound 133]”, the Peptide exchange entry is “″++″ (≥20% = ++)”.

As to “134 (YLQELIFSV; listed as Homo sapiens) [compound 134]”, the Peptide exchange result is “″+++″ (≥50% = +++)”.

With “135 (ALSEVDFQL; listed as Homo sapiens) [compound 135]”, the Peptide exchange entry is “″+++″ (≥50% = +++)”.

As for “136 (YLADPSNLFVV; listed as Homo sapiens) [compound 136]”, the Peptide exchange result is reported as “″+++″ (≥50% = +++)”.

Turning to “137 (TLVLTLPTV; listed as Homo sapiens) [compound 137]”, the Peptide exchange entry is “″++++″ (≥75% = ++++)”.

As to “138 (YQYPRAILSV; listed as Homo sapiens) [compound 138]”, the Peptide exchange entry is “″+++″ (≥50% = +++)”.

With “139 (SVMEVNSGIYRV; listed as Homo sapiens) [compound 139]”, the Peptide exchange entry is given as “″+++″ (≥50% = +++)”.

“140 (YMDAPKAAL; listed as Homo sapiens) [compound 140]”: the Peptide exchange result is listed as “″++″ (≥20% = ++)”.

As to “142 (FLFATPVFI; listed as Homo sapiens) [compound 142]”, the Peptide exchange entry is reported as “″+++″ (≥50% = +++)”.

Take “144 (YIMEPSIFNTL; listed as Homo sapiens) [compound 144]”: the Peptide exchange result was “″+++″ (≥50% = +++)”.

On to “145 (FLATSGTLAGI; listed as Homo sapiens) [compound 145]”, for which the Peptide exchange entry is “″++″ (≥20% = ++)”.

As for “146 (SLATAGDGLIEL; listed as Homo sapiens) [compound 146]”, the Peptide exchange result is on record as “″++″ (≥20% = ++)”.

As for “147 (SLLEAVSFL; listed as Homo sapiens) [compound 147]”, the Peptide exchange entry is reported as “″+++″ (≥50% = +++)”.

With “148 (ALNPEIVSV; listed as Homo sapiens) [compound 148]”, the Peptide exchange result is “″++″ (≥20% = ++)”.

As for “149 (NLLELFVQL; listed as Homo sapiens) [compound 149]”, the Peptide exchange entry was “″+++″ (≥50% = +++)”.

For “151 (KILQQLVTL; listed as Homo sapiens) [compound 151]”, the Peptide exchange entry is “″+++″ (≥50% = +++)”.
